Holding throughout (test): Biacore off-rate vs wt GC1008, 50 nM
Background: In SPR one partner is held on a chip, and binding of the other changes the refractive index at the surface.

In one assay the target is T1, human TGFβ1 (human, UniProt P01137 279-390).
T1 construct: also called TGFβ1 homodimer
The source says: (§1) Plasmids encoding either the GC1008 heavy chain or light chain were used as a template in PCR-based mutagenesis reactions. Mutations to the encoding DNA were made to create 155 single amino acid substitutions of the encoded heavy chain amino acid sequence and one single amino acid substitution of the encoded light chain amino acid sequence. A QuikChange® Lightning Site-Directed Mutagenesis kit (Agilent Technologies, Santa Clara Calif.) was used according to the manufacturer's instructions to create DNA mutations using a set of forward and reverse primers, either designed for a specific amino acid or for all 20 amino acids with a degenerate codon (NNK). After sequencing confirmation, identified mutant DNA was paired with a wild-type light or heavy chain DNA for transfection into an Expi293F™ host cell suspension (Life Techonologies Corp., Grand Island, N.Y.). At 4 days post-transfection, conditioned media (1 mL) was harvested and purified using a 1 mL Protein A PhyTip® column (PhyNexus, Inc., San Jose, Calif.) and a PureSpeed™ 12-channel pipette (Rainin Instrument LLC, Oakland, Calif.). Purified variant antibody samples were analyzed in duplicate on a Biacore® 3000 (GE Healthcare) at 50 nM concentrations, using the 100 RU level TGFβ1, 2, and 3 immobilized surfaces. The off-rate (kd) of the variants was divided by the kd of the wild-type control to obtain the fold change in the kd. […] A heat map was generated to visualize the results. Variants that completely lost affinity for TGFβ were shown in red without numbers.

The next assay has as its target T2, human TGFβ2 (human, UniProt P61812 303-414).
T2 construct: also called TGFβ2 homodimer
T2 sequence: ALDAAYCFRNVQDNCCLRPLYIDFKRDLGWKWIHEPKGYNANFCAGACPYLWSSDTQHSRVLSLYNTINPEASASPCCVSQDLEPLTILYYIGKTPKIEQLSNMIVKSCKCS
From the text: as §1

For a further assay, the target named is T3, human TGFβ3 (human, UniProt P10600 301-412).
T3 sequence: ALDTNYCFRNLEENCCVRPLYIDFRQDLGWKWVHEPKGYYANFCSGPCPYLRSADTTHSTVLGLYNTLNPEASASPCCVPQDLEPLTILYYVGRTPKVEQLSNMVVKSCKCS
From the text: as §1

T1 sequence (P01137 279-390 limits assumed): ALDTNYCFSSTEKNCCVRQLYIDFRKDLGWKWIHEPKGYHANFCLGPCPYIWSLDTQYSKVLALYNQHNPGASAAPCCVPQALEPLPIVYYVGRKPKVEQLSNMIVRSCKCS

B1: D56N (antibody, V domains shown)
VH: QVQLVQSGAEVKKPGSSVKVSCKASGYTFSSNVISWVRQAPGQGLEWMGGVIPIVNIANYAQRFKGRVTITADESTSTTYMELSSLRSEDTAVYYCASTLGLVLDAMDYWGQGTLVTVSS
VL: ETVLTQSPGTLSLSPGERATLSCRASQSLGSSYLAWYQQKPGQAPRLLIYGASSRAPGIPDRFSGSGSGTDFTLTISRLEPEDFAVYYCQQYADSPITFGQGTRLEIK
notes: GC1008 IgG4 variant
As for B1, the values for the kd var/kd wt in the assay with human TGFβ1, with human TGFβ2 and with human TGFβ3 were 1.2, 1.4 and 0.9, respectively.

B2: I54A (antibody, V domains shown)
VH: QVQLVQSGAEVKKPGSSVKVSCKASGYTFSSNVISWVRQAPGQGLEWMGGVIPAVDIANYAQRFKGRVTITADESTSTTYMELSSLRSEDTAVYYCASTLGLVLDAMDYWGQGTLVTVSS
VL: ETVLTQSPGTLSLSPGERATLSCRASQSLGSSYLAWYQQKPGQAPRLLIYGASSRAPGIPDRFSGSGSGTDFTLTISRLEPEDFAVYYCQQYADSPITFGQGTRLEIK
notes: GC1008 IgG4 variant
Consider B2, for which the kd var/kd wt in the assay with human TGFβ1 is 1.8; in the assay with human TGFβ2, 1.5; in the assay with human TGFβ3 it was 2.

B3: I54H (antibody, V domains shown)
VH: QVQLVQSGAEVKKPGSSVKVSCKASGYTFSSNVISWVRQAPGQGLEWMGGVIPHVDIANYAQRFKGRVTITADESTSTTYMELSSLRSEDTAVYYCASTLGLVLDAMDYWGQGTLVTVSS
VL: ETVLTQSPGTLSLSPGERATLSCRASQSLGSSYLAWYQQKPGQAPRLLIYGASSRAPGIPDRFSGSGSGTDFTLTISRLEPEDFAVYYCQQYADSPITFGQGTRLEIK
notes: GC1008 IgG4 variant
Consider B3, for which the kd var/kd wt worked out at 2.1 with human TGFβ1, 1.4 with human TGFβ2 and 1.6 with human TGFβ3.

B4: L104W (antibody, V domains shown)
VH: QVQLVQSGAEVKKPGSSVKVSCKASGYTFSSNVISWVRQAPGQGLEWMGGVIPIVDIANYAQRFKGRVTITADESTSTTYMELSSLRSEDTAVYYCASTLGLVWDAMDYWGQGTLVTVSS
VL: ETVLTQSPGTLSLSPGERATLSCRASQSLGSSYLAWYQQKPGQAPRLLIYGASSRAPGIPDRFSGSGSGTDFTLTISRLEPEDFAVYYCQQYADSPITFGQGTRLEIK
notes: GC1008 IgG4 variant
Consider B4, for which the kd var/kd wt came out at 4.7 in the assay with human TGFβ1, 2.9 with human TGFβ2 and 5.1 with human TGFβ3.

B5: E74C (antibody, V domains shown)
VH: QVQLVQSGAEVKKPGSSVKVSCKASGYTFSSNVISWVRQAPGQGLEWMGGVIPIVDIANYAQRFKGRVTITADCSTSTTYMELSSLRSEDTAVYYCASTLGLVLDAMDYWGQGTLVTVSS
VL: ETVLTQSPGTLSLSPGERATLSCRASQSLGSSYLAWYQQKPGQAPRLLIYGASSRAPGIPDRFSGSGSGTDFTLTISRLEPEDFAVYYCQQYADSPITFGQGTRLEIK
notes: GC1008 IgG4 variant
Turning to B5, the kd var/kd wt with human TGFβ1 came to 1.7; with human TGFβ2, 0.8; in the assay with human TGFβ3 it was 0.7.

B6: D56S (antibody, V domains shown)
VH: QVQLVQSGAEVKKPGSSVKVSCKASGYTFSSNVISWVRQAPGQGLEWMGGVIPIVSIANYAQRFKGRVTITADESTSTTYMELSSLRSEDTAVYYCASTLGLVLDAMDYWGQGTLVTVSS
VL: ETVLTQSPGTLSLSPGERATLSCRASQSLGSSYLAWYQQKPGQAPRLLIYGASSRAPGIPDRFSGSGSGTDFTLTISRLEPEDFAVYYCQQYADSPITFGQGTRLEIK
notes: GC1008 IgG4 variant
Turning to B6, the kd var/kd wt came out at 1.1 with human TGFβ1, 1.3 with human TGFβ2 and 1 in the assay with human TGFβ3.

B7: I54V (antibody, V domains shown)
VH: QVQLVQSGAEVKKPGSSVKVSCKASGYTFSSNVISWVRQAPGQGLEWMGGVIPVVDIANYAQRFKGRVTITADESTSTTYMELSSLRSEDTAVYYCASTLGLVLDAMDYWGQGTLVTVSS
VL: ETVLTQSPGTLSLSPGERATLSCRASQSLGSSYLAWYQQKPGQAPRLLIYGASSRAPGIPDRFSGSGSGTDFTLTISRLEPEDFAVYYCQQYADSPITFGQGTRLEIK
notes: GC1008 IgG4 variant
With B7, the kd var/kd wt in the assay with human TGFβ1 turned out to be 1; with human TGFβ2, 1; in the assay with human TGFβ3 it was 0.8.

B8: D56T (antibody, V domains shown)
VH: QVQLVQSGAEVKKPGSSVKVSCKASGYTFSSNVISWVRQAPGQGLEWMGGVIPIVTIANYAQRFKGRVTITADESTSTTYMELSSLRSEDTAVYYCASTLGLVLDAMDYWGQGTLVTVSS
VL: ETVLTQSPGTLSLSPGERATLSCRASQSLGSSYLAWYQQKPGQAPRLLIYGASSRAPGIPDRFSGSGSGTDFTLTISRLEPEDFAVYYCQQYADSPITFGQGTRLEIK
notes: GC1008 IgG4 variant
For the molecule B8, the kd var/kd wt turned out to be 1.3 with human TGFβ1, 1.5 with human TGFβ2 and 1.2 in the assay with human TGFβ3.

B9: I54P (antibody, V domains shown)
VH: QVQLVQSGAEVKKPGSSVKVSCKASGYTFSSNVISWVRQAPGQGLEWMGGVIPPVDIANYAQRFKGRVTITADESTSTTYMELSSLRSEDTAVYYCASTLGLVLDAMDYWGQGTLVTVSS
VL: ETVLTQSPGTLSLSPGERATLSCRASQSLGSSYLAWYQQKPGQAPRLLIYGASSRAPGIPDRFSGSGSGTDFTLTISRLEPEDFAVYYCQQYADSPITFGQGTRLEIK
notes: GC1008 IgG4 variant
As to B9, the values for the kd var/kd wt in the assay with human TGFβ1, with human TGFβ2 and with human TGFβ3 were 1.5, 1.3 and 1.6, respectively.

B10: G101Y (antibody, V domains shown)
VH: QVQLVQSGAEVKKPGSSVKVSCKASGYTFSSNVISWVRQAPGQGLEWMGGVIPIVDIANYAQRFKGRVTITADESTSTTYMELSSLRSEDTAVYYCASTLYLVLDAMDYWGQGTLVTVSS
VL: ETVLTQSPGTLSLSPGERATLSCRASQSLGSSYLAWYQQKPGQAPRLLIYGASSRAPGIPDRFSGSGSGTDFTLTISRLEPEDFAVYYCQQYADSPITFGQGTRLEIK
notes: GC1008 IgG4 variant
For B10, the kd var/kd wt stood at 1.9 with human TGFβ1, 1.5 with human TGFβ2 and 2 with human TGFβ3.

B11: I54M (antibody, V domains shown)
VH: QVQLVQSGAEVKKPGSSVKVSCKASGYTFSSNVISWVRQAPGQGLEWMGGVIPMVDIANYAQRFKGRVTITADESTSTTYMELSSLRSEDTAVYYCASTLGLVLDAMDYWGQGTLVTVSS
VL: ETVLTQSPGTLSLSPGERATLSCRASQSLGSSYLAWYQQKPGQAPRLLIYGASSRAPGIPDRFSGSGSGTDFTLTISRLEPEDFAVYYCQQYADSPITFGQGTRLEIK
notes: GC1008 IgG4 variant
With B11, the kd var/kd wt was determined as 1.5 in the assay with human TGFβ1, 1.3 in the assay with human TGFβ2 and 1.7 with human TGFβ3.

B12: I54L (antibody, V domains shown)
VH: QVQLVQSGAEVKKPGSSVKVSCKASGYTFSSNVISWVRQAPGQGLEWMGGVIPLVDIANYAQRFKGRVTITADESTSTTYMELSSLRSEDTAVYYCASTLGLVLDAMDYWGQGTLVTVSS
VL: ETVLTQSPGTLSLSPGERATLSCRASQSLGSSYLAWYQQKPGQAPRLLIYGASSRAPGIPDRFSGSGSGTDFTLTISRLEPEDFAVYYCQQYADSPITFGQGTRLEIK
notes: GC1008 IgG4 variant
With B12, the kd var/kd wt with human TGFβ1 stood at 1.2; with human TGFβ2, 1.1; with human TGFβ3, 1.1.

B13: D56Q (antibody, V domains shown)
VH: QVQLVQSGAEVKKPGSSVKVSCKASGYTFSSNVISWVRQAPGQGLEWMGGVIPIVQIANYAQRFKGRVTITADESTSTTYMELSSLRSEDTAVYYCASTLGLVLDAMDYWGQGTLVTVSS
VL: ETVLTQSPGTLSLSPGERATLSCRASQSLGSSYLAWYQQKPGQAPRLLIYGASSRAPGIPDRFSGSGSGTDFTLTISRLEPEDFAVYYCQQYADSPITFGQGTRLEIK
notes: GC1008 IgG4 variant
For B13, the kd var/kd wt came to 1.1 with human TGFβ1, 1.3 with human TGFβ2 and 1 with human TGFβ3.

B14: D56V (antibody, V domains shown)
VH: QVQLVQSGAEVKKPGSSVKVSCKASGYTFSSNVISWVRQAPGQGLEWMGGVIPIVVIANYAQRFKGRVTITADESTSTTYMELSSLRSEDTAVYYCASTLGLVLDAMDYWGQGTLVTVSS
VL: ETVLTQSPGTLSLSPGERATLSCRASQSLGSSYLAWYQQKPGQAPRLLIYGASSRAPGIPDRFSGSGSGTDFTLTISRLEPEDFAVYYCQQYADSPITFGQGTRLEIK
notes: GC1008 IgG4 variant
For B14, the values for the kd var/kd wt with human TGFβ1, with human TGFβ2 and in the assay with human TGFβ3 were 1.6, 1.5 and 1.3, respectively.

B15: I52V (antibody, V domains shown)
VH: QVQLVQSGAEVKKPGSSVKVSCKASGYTFSSNVISWVRQAPGQGLEWMGGVVPIVDIANYAQRFKGRVTITADESTSTTYMELSSLRSEDTAVYYCASTLGLVLDAMDYWGQGTLVTVSS
VL: ETVLTQSPGTLSLSPGERATLSCRASQSLGSSYLAWYQQKPGQAPRLLIYGASSRAPGIPDRFSGSGSGTDFTLTISRLEPEDFAVYYCQQYADSPITFGQGTRLEIK
notes: GC1008 IgG4 variant
In the case of B15, the kd var/kd wt with human TGFβ1 came to 0.9; with human TGFβ2, 1.1; with human TGFβ3, 1.2.

(Values after patent publication US20170342144A1 (Sanofi, published 2017).)
